From article PMC10724246 (Nature Communications, 2023)
No end group written: not given here.

Experiments:
[1] = target: T1, αWD40 Arg300Ala mutant (Schizosaccharomyces pombe, UniProt Q96WV5, R300A); assay: biochemical; format: binding, S. pombe; conditions: pH 6.5
T1 construct: strep-tag (C); made in house; host or cells: Expi293 cells
T1 sequence (Q96WV5 1-327 R300A limits assumed): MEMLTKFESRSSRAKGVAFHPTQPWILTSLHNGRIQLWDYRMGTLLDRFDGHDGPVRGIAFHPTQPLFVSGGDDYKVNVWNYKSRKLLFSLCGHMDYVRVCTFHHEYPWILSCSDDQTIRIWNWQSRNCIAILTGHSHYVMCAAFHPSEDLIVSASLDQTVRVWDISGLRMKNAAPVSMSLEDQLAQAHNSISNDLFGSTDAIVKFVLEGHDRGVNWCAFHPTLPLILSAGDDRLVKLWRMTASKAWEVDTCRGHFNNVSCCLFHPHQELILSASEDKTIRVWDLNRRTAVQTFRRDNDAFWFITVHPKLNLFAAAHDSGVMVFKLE

[2] = target: T2, β‘WD40 domain (β‘-COPI) (Saccharomyces cerevisiae, UniProt P41811); assay: biochemical; format: binding, S. cerevisiae; conditions: pH 6.5
T2 construct: strep-Hisx6-SUMO (N, cleaved yes); made in house; host or cells: E. coli BL21(DE3)pLysS
T2 sequence (P41811 1-304 limits assumed): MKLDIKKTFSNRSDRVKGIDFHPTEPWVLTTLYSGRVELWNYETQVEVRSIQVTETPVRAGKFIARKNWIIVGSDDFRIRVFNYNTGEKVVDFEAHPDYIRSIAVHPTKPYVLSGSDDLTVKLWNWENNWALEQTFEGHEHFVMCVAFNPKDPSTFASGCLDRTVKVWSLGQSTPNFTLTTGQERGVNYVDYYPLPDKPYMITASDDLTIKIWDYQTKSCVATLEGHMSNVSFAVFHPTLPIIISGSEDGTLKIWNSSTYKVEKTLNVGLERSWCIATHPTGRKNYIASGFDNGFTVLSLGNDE

[3] = target: T3, αWD40 Arg13Ala mutant (Schizosaccharomyces pombe, UniProt Q96WV5, R13A); assay: biochemical; format: binding, S. pombe; conditions: pH 6.5
T3 construct: strep-tag (C); made in house; host or cells: Expi293 cells
T3 sequence (Q96WV5 1-327 R13A limits assumed): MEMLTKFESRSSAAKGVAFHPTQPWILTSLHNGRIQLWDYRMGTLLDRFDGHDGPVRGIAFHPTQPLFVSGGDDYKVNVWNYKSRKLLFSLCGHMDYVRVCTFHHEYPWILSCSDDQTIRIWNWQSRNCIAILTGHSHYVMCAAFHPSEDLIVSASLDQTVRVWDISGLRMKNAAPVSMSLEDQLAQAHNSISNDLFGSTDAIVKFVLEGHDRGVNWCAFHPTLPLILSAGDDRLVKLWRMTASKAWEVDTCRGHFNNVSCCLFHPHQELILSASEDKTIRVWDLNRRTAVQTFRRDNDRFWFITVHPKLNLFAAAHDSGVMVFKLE

[4] = target: Thr1273Glu clientized S tail 21mer peptide (BLI) (SARS-CoV-2); assay: BLI; […]; pH 6.5 ([…]; 25 °C; Octet RED96; […]
[5] = target: amidated clientized Thr1273Glu S heptapeptide (SARS-CoV-2); assay: BLI; […]; pH 6.5 ([…]; 25 °C; Octet RED96; […]
[6] = target: Thr1273Glu clientized S tail 21mer peptide (BLI) (SARS-CoV-2); assay: BLI; pH 7
[7] = target: clientized GST-S tail fusion, Thr1273Glu (SARS-CoV-2); assay: pull-down
[8] = target: clientized GST-S tail fusion, Thr1273Asp (SARS-CoV-2); assay: pull-down
[9] = target: wild-type SARS-CoV-2 S tail heptapeptide (1267Gly-Val-Lys-Leu-His-Tyr-Thr1273) (SARS-CoV-2); assay: BLI; […]; pH 6.5 ([…]; 25 °C; Octet RED96; […]
[10] = target: clientized Thr1273Glu SARS-CoV-2 S tail heptapeptide (1267Gly-Val-Lys-Leu-His-Tyr-Glu1273) (SARS-CoV-2); assay: BLI; […]; pH 6.5 ([…]; 25 °C; Octet RED96; […]
[11] = target: T4, S. cerevisiae β‘-COPI WD40 domain (β‘WD40), wild type (S. cerevisiae, UniProt P41811 1-301); assay: BLI; […]; pH 6.5 ([…]; 25 °C; Octet RED96; […]; conditions: both partners purified
T4 sequence: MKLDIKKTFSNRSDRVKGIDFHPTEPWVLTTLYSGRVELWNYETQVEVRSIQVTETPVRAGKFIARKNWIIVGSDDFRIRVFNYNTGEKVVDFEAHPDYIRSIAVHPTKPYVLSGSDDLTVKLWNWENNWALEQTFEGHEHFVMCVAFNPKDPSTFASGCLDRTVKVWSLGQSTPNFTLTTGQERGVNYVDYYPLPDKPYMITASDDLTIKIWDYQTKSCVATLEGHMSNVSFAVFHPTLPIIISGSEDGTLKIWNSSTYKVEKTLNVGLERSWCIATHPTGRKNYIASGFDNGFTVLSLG

**Q.** How did the koff [1] turn out when GVKLHYE [GVKLHYE] was run?
**A.** 0.43 ± 0.003 s⁻¹

**Q.** What about the koff [2] of the same molecule?
**A.** 1.27 ± 0.03 s⁻¹

**Q.** And the koff [3]?
**A.** 0.22 ± 0.008 s⁻¹

**Q.** With GVKLHYT [GVKLHYT] as the molecule, how does the koff [1] read?
**A.** 0.81 ± 0.007 s⁻¹

**Q.** What about the koff [3] of the same molecule?
**A.** 0.38 ± 0.007 s⁻¹

**Q.** “S. pombe α-COPI WD40 domain (αWD40), wild type (domain or fragment)” was tested. Which Kd [4] did it give?
**A.** 100 nM

**Q.** And the Kd [5]?
**A.** 2300 nM

**Q.** What about the Kd [6] of the same molecule?
**A.** 100 nM

**Q.** Which results are given for “endogenous coatomer complex (mouse liver cytosol) (from UniProt Q8CIE6 1-1224; Q9JIF7 1-953; O55029 1-905; Q9QZE5 1-874; Q5XJY5 1-511; O89079 1-308; P61924 1-177)”?
**A.** fold binding over the Lys-x-Lys-x-xCT dibasic mutant [7]: 2 fold; fold binding over the wild-type GST-S tail construct [7]: 17 fold; fold binding over the Lys-x-Lys-x-xCT dibasic mutant [8]: 2 fold; fold binding over the wild-type GST-S tail construct [8]: 17 fold

**Q.** What does the source list for “αWD40 Arg13Ala mutant (domain or fragment)”?
**A.** Kd [9]: 8500 nM; koff [9]: 0.38 s⁻¹; kon [9]: 148000 M⁻¹ s⁻¹; Kd [10]: 3000 nM; koff [10]: 0.22 s⁻¹; kon [10]: 132000 M⁻¹ s⁻¹

**Q.** How did the Kd [9] turn out when “αWD40 Arg300Ala mutant (domain or fragment)” was run?
**A.** 3600 nM

**Q.** What about the koff [9] of the same molecule?
**A.** 0.81 s⁻¹

**Q.** And the kon [9]?
**A.** 360000 M⁻¹ s⁻¹

**Q.** And the Kd [10]?
**A.** 4200 nM

**Q.** And the koff [10]?
**A.** 0.43 s⁻¹

**Q.** What about the kon [10] of the same molecule?
**A.** 137000 M⁻¹ s⁻¹

B1: clientized Thr1273Glu SARS-CoV-2 S tail heptapeptide (1267Gly-Val-Lys-Leu-His-Tyr-Glu1273) (peptide)
peptide: GVKLHYE
notes: also called GVKLHYE; clientized S heptapeptide
**Q.** Which results are given for B1?
**A.** Kd [11]: 2300 ± 230 nM; koff [11]: 1.27 s⁻¹; kon [11]: 2.42e+06 M⁻¹ s⁻¹
